Earlier results on 1 substance are cited in article PMC3773255.

The series deals with E-cadherin EC1-2 (UniProt P12830).

On to E-cadherin EC1-2 (from UniProt P12830), for which the equilibrium dissociation constant (Kd) was 97 µM.
